From PMC9828552

B1: AlaDH-FDH-His fusion protein (FDH domain) ([Candida] boidinii) (protein)
chain: MKIVLVLYDAGKHAADEEKLYGCTENKLGIANWLKDQGHELITTSDKEGETSELDKHIPDADIIITTPFHPAYITKERLDKAKNLKLVVVAGVGSDHIDLDYINQTGKKISVLEVTGSNVVSVAEHVVMTMLVLVRNFVPAHEQIINHDWEVAAIAKDAYDIEGKTIATIGAGRIGYRVLERLLPFNPKELLYYDYQALPKEAEEKVGARRVENIEELVAQADIVTVNAPLHAGTKGLINKELLSKFKKGAWLVNTARGAICVAEDVAAALESGQLRGYGGDVWFPQPAPKDHPWRDMRNKYGAGNAMTPHYSGTTLDAQTRYAEGTKNILESFFTGKFDYRPQDIILLNGEYVTKAYGKHDKK
B2: WT FDH (CbFDH) ([Candida] boidinii) (protein)
chain: MKIVLVLYDAGKHAADEEKLYGCTENKLGIANWLKDQGHELITTSDKEGETSELDKHIPDADIIITTPFHPAYITKERLDKAKNLKLVVVAGVGSDHIDLDYINQTGKKISVLEVTGSNVVSVAEHVVMTMLVLVRNFVPAHEQIINHDWEVAAIAKDAYDIEGKTIATIGAGRIGYRVLERLLPFNPKELLYYDYQALPKEAEEKVGARRVENIEELVAQADIVTVNAPLHAGTKGLINKELLSKFKKGAWLVNTARGAICVAEDVAAALESGQLRGYGGDVWFPQPAPKDHPWRDMRNKYGAGNAMTPHYSGTTLDAQTRYAEGTKNILESFFTGKFDYRPQDIILLNGEYVTKAYGKHDKK
B3: AlaDH-FDH-His fusion protein (AlaDH domain) (Halomonas elongata DSM 2581) (protein)
chain: MKIAVPKEIKNHEYRVALTPSGARELVGRGHDVIVQAAAGEGAGFSDADFEAAGARLEADVAKLWDDAELILKVKEPQAEEVARLSAGQTLFTYLHLAAEESLTKGLLDSGATCIAYETITAPEGGLPLLAPMSTVAGRMAVQAGAHSLEKAQGGAGILLPGVPGVAPARVTVIGGGVVGENAARMALGLGAEVTVLDKSIPRLETLDDRYQGRMKTVFSTADALEEAVRESDLIIGAVLVPGAAAPKLITRDMLSDMKPGSVLVDVAIDQGGCFETSKPTTHAEPTYVVDGVVHYCVANMPGAVARTSTQALTNATLPFVVALADKGWQKALADDDHFAAGLNVHDGKLTYRAVAEAFGLEYVEAASLIG

How the values were obtained:
purified protein [1] = substrate: O=CO; assay: purified protein; details: 3 mM NAD+, 25 mM potassium phosphate pH 7.5, 25 °C
purified protein [2] = substrate: C[C@H](N)C(=O)O; assay: purified protein; details: oxidative deamination, 1 mM NAD+, 100 mM NaHCO3 pH 10, 25 °C

Protein	Km (purified protein [1])	kcat (purified protein [1])	Km (purified protein [2])	kcat (purified protein [2])
B1	7.8 ± 1.4 mM	0.7 s⁻¹		
B2	5.0 ± 1.0 mM	1.3 s⁻¹		
B3			11.4 ± 1.5 mM	1.7 s⁻¹
